Experimental findings from US20260098070A1 (DEM BIOPHARMA, published 2026) are described below.

In experiment [1] the target is CLEC10A expressed on transfected HEK293 cells (human) (UniProt Q8IUN9). Put plainly: flow cytometry, live HEK293 transfectants, 5 µg/mL probe in PBS+Ca2+/Mg2+, AF647 anti-human Fc. For orientation: A flow cytometer gives signals particle by particle.
Experiment [2] concerns the target T1, CD177 ECD-Fc (CD177 extracellular domain with Fc tag) (UniProt Q8N6Q3 22-408, limits assumed).
T1 construct: extracellular domain; also called CD177-Fc; recombinant CD177 ECD; not shown: Fc tag
T1 sequence (looked up): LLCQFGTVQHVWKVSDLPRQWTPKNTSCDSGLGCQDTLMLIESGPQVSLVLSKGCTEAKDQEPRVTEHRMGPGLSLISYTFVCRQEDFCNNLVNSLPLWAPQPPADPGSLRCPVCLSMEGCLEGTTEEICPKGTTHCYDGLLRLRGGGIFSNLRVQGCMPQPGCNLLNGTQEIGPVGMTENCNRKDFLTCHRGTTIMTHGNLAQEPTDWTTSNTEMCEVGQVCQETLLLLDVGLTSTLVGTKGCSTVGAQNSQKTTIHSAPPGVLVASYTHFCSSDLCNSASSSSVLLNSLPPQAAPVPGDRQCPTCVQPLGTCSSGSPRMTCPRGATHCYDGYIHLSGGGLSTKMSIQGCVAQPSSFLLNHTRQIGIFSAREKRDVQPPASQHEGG
Put plainly: ELISA, immobilized CD177 ECD-Fc, biotinylated peptide pre-incubated with HRP-streptavidin. The method, then:
To evaluate the binding of aglycosylated hSMAGP ECD to CD177, an hSMAGP ECD peptide (H2N-[…]-Biotin-amide (SEQ ID NO: 62)) was chemically synthesized. An extra lysine residue was added to the C terminus to facilitate biotinylation. Another peptide, with a scrambled hSMAGP ECD sequence (H2N-[…]-Biotin-amide (SEQ ID NO: 63)), was synthesized as a control. Peptide binding to the recombinant CD177 ECD-Fc (CD177 extracellular domain with Fc tag) or hIgG1-Fc (IgG1 domain with Fc tag) negative control was evaluated in an enzyme-linked immunosorbent assay (ELISA). CD177 ECD-Fc and hIgG1-Fc were immobilized to separate Corning 96-well Clear Flat Bottom Polystyrene High Bind Microplates at 4° C. overnight in PBS. Plates were blocked using 5% skim milk. Biotinylated hSMAGP ECD peptide or the scrambled control (10 μg/ml) was pre-incubated with HRP-conjugated streptavidin (5 μg/ml) and added to the plates. In a control assay, an anti-CD177 antibody (Biolegend Cat #315802; 10 μg/ml) was premixed with the biotinylated SMAGP ECD peptide. The signal was developed using TMB substrate. The assay was performed in triplicate.
For orientation: In an ELISA, binding on a coated surface is turned into a signal by an enzyme label.

No end group written: not given here. *: point of attachment. Biotin = O=C1N[C@H]2[C@H](CS[C@H]2CCCCC(=O)*)N1

Sequence of CLEC10A expressed on transfected HEK293 cells (human) (Q8IUN9 whole entry, the tested form may be a part): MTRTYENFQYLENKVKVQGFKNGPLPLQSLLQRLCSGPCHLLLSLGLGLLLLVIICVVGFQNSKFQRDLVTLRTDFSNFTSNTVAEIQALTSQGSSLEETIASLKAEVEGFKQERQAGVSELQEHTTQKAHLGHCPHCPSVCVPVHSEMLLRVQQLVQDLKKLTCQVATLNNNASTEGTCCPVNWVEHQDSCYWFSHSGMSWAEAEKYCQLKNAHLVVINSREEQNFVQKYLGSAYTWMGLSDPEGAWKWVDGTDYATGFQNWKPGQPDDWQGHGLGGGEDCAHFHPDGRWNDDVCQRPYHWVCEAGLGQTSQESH

For the molecule hSMAGP ECD-hIgG1 Fc (Fc fusion), in experiment [1], the fold change in median fluorescence intensity over control cells stood at 3.3 fold.

B1: aglycosylated scrambled hSMAGP ECD peptide (peptide)
peptide: TRTTLIMESTTPALMLLEPLGSPQDAPTSTEEAPSLK(Biotin)-NH2
modifications: N-terminus assumed
SMILES: CC[C@H](C)[C@H](NC(=O)[C@H](CC(C)C)NC(=O)[C@@H](NC(=O)[C@@H](NC(=O)[C@H](CCCNC(=N)N)NC(=O)[C@@H](N)[C@@H](C)O)[C@@H](C)O)[C@@H](C)O)C(=O)N[C@@H](CCSC)C(=O)N[C@@H](CCC(=O)O)C(=O)N[C@@H](CO)C(=O)N[C@H](C(=O)N[C@H](C(=O)N1CCC[C@H]1C(=O)N[C@@H](C)C(=O)N[C@@H](CC(C)C)C(=O)N[C@@H](CCSC)C(=O)N[C@@H](CC(C)C)C(=O)N[C@@H](CC(C)C)C(=O)N[C@@H](CCC(=O)O)C(=O)N1CCC[C@H]1C(=O)N[C@@H](CC(C)C)C(=O)NCC(=O)N[C@@H](CO)C(=O)N1CCC[C@H]1C(=O)N[C@@H](CCC(N)=O)C(=O)N[C@@H](CC(=O)O)C(=O)N[C@@H](C)C(=O)N1CCC[C@H]1C(=O)N[C@H](C(=O)N[C@@H](CO)C(=O)N[C@H](C(=O)N[C@@H](CCC(=O)O)C(=O)N[C@@H](CCC(=O)O)C(=O)N[C@@H](C)C(=O)N1CCC[C@H]1C(=O)N[C@@H](CO)C(=O)N[C@@H](CC(C)C)C(=O)N[C@@H](CCCCNC(=O)CCCC[C@@H]1SC[C@@H]2NC(=O)N[C@@H]21)C(N)=O)[C@@H](C)O)[C@@H](C)O)[C@@H](C)O)[C@@H](C)O
notes: Pre-incubated with HRP-conjugated streptavidin before addition to the plates; also called scrambled control
As to B1, in experiment [2], the binding result was “no binding (tested: 10 µg/ml)”.
